The source of these data is PMC6623464, “HTLV-1 basic leucine zipper factor protects cells from oxidative stress by upregulating expression of Heme Oxygenase I”.

The target of series [1] is T1, MafG-His;T7-HBZ-bZIP (human?;HTLV-1, UniProt O15525;P0C746-2 1-162;120-206, |). Kind of series: EMSA; most pronounced increase over MafG alone; EMSA: 0.5x TM (100 mM Tris-HCl pH 7.5, 20 mM MgSO4 as printed), 1 mM DTT, 1 ug BSA, 100 ng poly(dA)-poly(dT), 2-10 fmol probe, 20 C, 1 h; proteins stored in 50. To be noted: protein: recombinant;recombinant; tags: 6xHis (pRSET A);T7; copies: 1;1; label: 32P end label. Background: A gel shift assay detects complexes by their altered migration in electrophoresis.

Series [2] addresses T1, MafG-His;T7-HBZ-bZIP. In words: EMSA; increased over MafG alone; EMSA: 0.5x TM (100 mM Tris-HCl pH 7.5, 20 mM MgSO4 as printed), 1 mM DTT, 1 ug BSA, 100 ng poly(dA)-poly(dT), 2-10 fmol probe, 20 C, 1 h; proteins stored in 50. To be noted: protein: recombinant;recombinant; tags: 6xHis (pRSET A);T7; copies: 1;1; label: 32P end label.
For series [3], the target named is GST-HBZ (HTLV-1, UniProt P0C746-2 1-206). In words: EMSA; HBZ 50 nM, no MafG; EMSA: 0.5x TM (100 mM Tris-HCl pH 7.5, 20 mM MgSO4 as printed), 1 mM DTT, 1 ug BSA, 100 ng poly(dA)-poly(dT), 2-10 fmol probe, 20 C, 1 h; proteins stored in 50. To be noted: protein: recombinant; tags: GST; chain copies: 2; label: 32P end label.
GST-HBZ, sequence (P0C746 8-209, tags left off): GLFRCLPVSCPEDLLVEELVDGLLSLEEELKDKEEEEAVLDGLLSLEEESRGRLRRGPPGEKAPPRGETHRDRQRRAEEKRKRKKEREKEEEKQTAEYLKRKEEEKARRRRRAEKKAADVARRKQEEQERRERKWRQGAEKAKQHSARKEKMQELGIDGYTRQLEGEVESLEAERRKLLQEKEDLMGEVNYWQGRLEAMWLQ
The target in series [4] is T1, MafG-His;T7-HBZ-bZIP. Kind of series: EMSA; increased over MafG alone; MafG 0.5 nM; EMSA: 0.5x TM (100 mM Tris-HCl pH 7.5, 20 mM MgSO4 as printed), 1 mM DTT, 1 ug BSA, 100 ng poly(dA)-poly(dT), 2-10 fmol probe, 20 C, 1 h; proteins stored in 50. To be noted: protein: recombinant;recombinant; tags: 6xHis (pRSET A);T7; copies: 1;1; label: 32P end label.
Series [5] deals with GST-HBZ-AD (HTLV-1, UniProt P0C746-2 1-57). Kind of series: EMSA; HBZ-AD 50 nM, no MafG; EMSA: 0.5x TM (100 mM Tris-HCl pH 7.5, 20 mM MgSO4 as printed), 1 mM DTT, 1 ug BSA, 100 ng poly(dA)-poly(dT), 2-10 fmol probe, 20 C, 1 h; proteins stored in 50. To be noted: protein: recombinant; tags: GST; label: 32P end label.
GST-HBZ-AD, sequence (P0C746 8-60, tags left off): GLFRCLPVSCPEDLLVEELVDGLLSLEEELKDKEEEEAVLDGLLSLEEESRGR
Series [6] has as its target T2, MafG-His (UniProt O15525 1-162). In words: EMSA; MafG 0.5 or 1 nM; EMSA: 0.5x TM (100 mM Tris-HCl pH 7.5, 20 mM MgSO4 as printed), 1 mM DTT, 1 ug BSA, 100 ng poly(dA)-poly(dT), 2-10 fmol probe, 20 C, 1 h; proteins stored in 50. To be noted: protein: recombinant; tags: 6xHis (pRSET A); chain copies: 2; label: 32P end label.
Series [7] concerns the target T2, MafG-His. In words: EMSA; MafG 0.5 nM; higher apparent affinity than distal MAREs; EMSA: 0.5x TM (100 mM Tris-HCl pH 7.5, 20 mM MgSO4 as printed), 1 mM DTT, 1 ug BSA, 100 ng poly(dA)-poly(dT), 2-10 fmol probe, 20 C, 1 h; proteins stored in 50. To be noted: protein: recombinant; tags: 6xHis (pRSET A); chain copies: 2; label: 32P end label.
The target of series [8] is T1, MafG-His;T7-HBZ-bZIP. In words: EMSA; HBZ-bZIP diminished the MafG complex; authors conclude heterodimer does not bind; EMSA: 0.5x TM (100 mM Tris-HCl pH 7.5, 20 mM MgSO4 as printed), 1 mM DTT, 1 ug BSA, 100 ng poly(dA)-poly(dT), 2-10 fmol probe, 20 C, 1 h; proteins stored in 50. To be noted: protein: recombinant;recombinant; tags: 6xHis (pRSET A);T7; copies: 1;1; label: 32P end label.

In series [9] the target is T2, MafG-His. Kind of series: EMSA; EMSA: 0.5x TM (100 mM Tris-HCl pH 7.5, 20 mM MgSO4 as printed), 1 mM DTT, 1 ug BSA, 100 ng poly(dA)-poly(dT), 2-10 fmol probe, 20 C, 1 h; proteins stored in 50. To be noted: protein: recombinant; tags: 6xHis (pRSET A); chain copies: 2; label: 32P end label.

B1: HMOX1 Distal 3 MARE probe (dsDNA)
DNA 1: TGTCTGTTTTCGCTGAGTCACGGTCTAGAGAT
DNA 2: ATCTCTAGACCGTGACTCAGCGAAAACAGACA
In the case of B1, the binding result in [1] was “binds”.

B2: HMOX1 Distal 2 MARE probe (dsDNA)
DNA 1: GATCTGTTTTCGCTGAGTCACGGTCCCGGTGT
DNA 2: ACACCGGGACCGTGACTCAGCGAAAACAGATC
With B2, the binding result in series [2] is listed as “binds”.

B3: T-MARE probe (dsDNA)
DNA 1: AGCTCGGAATTGCTGACTCAGCATTACTCTCG
DNA 2: CGAGAGTAATGCTGAGTCAGCAATTCCGAGCT
B3: the binding result in series [3] is recorded as “no binding”; in [4], “binds”; in [5], “no binding”; in series [6] it was “binds”.

B4: HMOX1 Distal 1 MARE probe (dsDNA)
DNA 1: GTGTTTTTCCTGCTGAGTCACGGTCCCGAGGT
DNA 2: ACCTCGGGACCGTGACTCAGCAGGAAAAACAC
For B4, the binding result in series [2] is given as “binds”.

B5: HMOX1 proximal MARE probe (dsDNA)
DNA 1: TGCTAGATTTTGCTGAGTCACCAGTGCCTCCT
DNA 2: AGGAGGCACTGGTGACTCAGCAAAATCTAGCA
Consider B5, for which the binding result is “binds” in series [7] and “no binding” in series [8].

B6: MARE MT probe (dsDNA)
DNA 1: AGCTCGGAATCAATGACTCATTGTTACTCTCG
DNA 2: CGAGAGTAACAATGAGTCATTGATTCCGAGCT
As to B6, in [9], the binding result is on record as “no binding”.
